Experimental data as given in patent US20120251547A1 (Amgen, published 2012).
Residue numbers refer to the chain shown, from its start.

B1: AMH21/AML21 (antibody, IgG2, V domains shown)
VH: EVQLVESGGGSVQPGGSLRLSCAASGFTFSSYSMNWVRQAPGKGLEWVSIISSRSSIIHYADSVKGRFTISRDNAKNSLYLQMNSLRDEDTAVYYCARPKVGGGMDVWGQGTTVTVSS
VL: DIQMTQSPSSLSASVGDRVTITCRASQGISNYLAWYQQKPGKFPELLIYAASTLQSGVPSRFSGSGSGTDFTLTISSLQPEDVATYYCQKYNRAPFTFGPGTKVDIK
notes: human mAb from IgG2 XenoMouse mice; also called AM-21; antibody Q
B2: AMH20/AML20 (antibody, IgG2, V domains shown)
VH: B1 VH with S11L, I50F, S53A, I57T, H59Y
VL: B1 VL
notes: human mAb from IgG2 XenoMouse mice; also called AM-20; antibody R
B3: AMH18/AML18 (antibody, IgG2, V domains shown)
VH: QVQLVQSGAEVKKPGASVKVSCKASGYSFTDYYMHWVRQAPGQGLEWMGWMHPNSGGTDLAQRFQGRVTMTRDTSISTAYMELSRLRSDDTAVYYCARGGYCSTLSCSFYWYFDLWGRGTLVTVSS
VL: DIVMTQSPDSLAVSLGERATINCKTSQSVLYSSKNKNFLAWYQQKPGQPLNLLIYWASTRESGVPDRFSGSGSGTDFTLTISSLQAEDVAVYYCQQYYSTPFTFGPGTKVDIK
notes: human mAb from IgG2 XenoMouse mice; also called AM-18; antibody G

Columns and labels:
[1] = biological target: T1, huIL-17RA-FLAG-polyHis (human, UniProt Q96F46 33-320); test: binning; IL-17RA held by bead mAb K
T1 construct: also called IL-17RA-FLAG-pHis; wild-type IL-17RA

[2] = biological target: T1, huIL-17RA-FLAG-polyHis; test: binning; IL-17RA held by bead mAb I
Protocol: (§1) The method employed the Bio-Plex Workstation and software (BioRad, Hercules, Calif.), as well as reagents from Luminex® Corp. (Austin, Tex.). […] The mouse-anti-human IgG coating was evaluated and the beads quantified by FACS. Each bead code was separately incubated with 10 ul of anti-IL-17RA antibody for 1 hour at room temperature and then washed. The beads were pooled and then dispensed to a 96-well filter plate (Millipore, Billerica, Mass., product #MSBVN1250). […] The PE-tagged monovalent antibody will detect the presence of the second mAb added to the well, but not the first mAb captured by the monovalent mouse-anti-human IgG antibody. Beads were resuspended in 120u1 PBSAT and at least 100 events/bead code were collected on the Bio-Plex workstation as per the manufacturer's recommended protocol.

[3] = biological target: T1, huIL-17RA-FLAG-polyHis; test: binning; IL-17RA held by bead mAb E
Protocol: as §1

[4] = biological target: T1, huIL-17RA-FLAG-polyHis; test: binning; IL-17RA held by bead mAb Q
Protocol: as §1

[5] = biological target: human IL-17RA, full-length, on cells (human, UniProt Q96F46 33-866); test: cell-based or functional assay
[6] = biological target: T2, chimera L; test: Bio-Plex titration on His-captured chimera;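 note: binding of anti-IL-17RA antibodies (4-fold titration across about 5 logs, 1 h) to His-captured IL-17RA chimeras on multiplexed beads, MFI read as percent of maximal wild-type human IL-17RA signal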
T2 construct: human IL-17RA extracellular domain with mouse Domains B and F; B+F; also called Construct L
Protocol: (§2) Twelve bead codes of pentaHis-coated beads (Qiagen, Valencia, Calif.; see wwwl.qiagen.com) were used to capture histidine-tagged protein. The 12 bead codes allowed the multiplexing of 11 chimeric and the wild type human IL-17RA.
(§3) The beads were washed as per the manufacturer's protocol and the 12 bead set was pooled and aliquoted into 2 or 3 columns of a 96-well filter plate (Millipore, Billerica, Mass., product #MSBVN1250) for duplicate or triplicate assay points, respectively. 100 ul anti-IL-17RA antibodies in 4-fold dilutions were added to the wells, incubated for 1 hour at room temperature, and washed. […] Beads were resuspended in 1% BSA, shaken for 3 minutes, and read on the Bio-Plex workstation. Antibody binding to IL-17RA chimeric protein was compared to antibody binding to the human IL-17RA wild-type from the same pool. A titration of antibody over approximately a 5 log scale was performed. Median Fluorescence Intensity (MFI) of chimeric proteins was graphed as a percent of maximum wild-type human IL-17RA signal.

[7] = biological target: T3, chimera E; test: Bio-Plex titration on His-captured chimera;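 note: binding of anti-IL-17RA antibodies (4-fold titration across about 5 logs, 1 h) to His-captured IL-17RA chimeras on multiplexed beads, MFI read as percent of maximal wild-type human IL-17RA signal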
T3 construct: human IL-17RA extracellular domain with mouse Domain E; also called Construct E
Protocol: as §2, §3

[8] = biological target: T4, chimera C; test: Bio-Plex titration on His-captured chimera;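 note: binding of anti-IL-17RA antibodies (4-fold titration across about 5 logs, 1 h) to His-captured IL-17RA chimeras on multiplexed beads, MFI read as percent of maximal wild-type human IL-17RA signal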
T4 construct: human IL-17RA extracellular domain with mouse Domain C; also called Construct C
Protocol: as §2, §3

[9] = biological target: T5, chimera H; test: Bio-Plex titration on His-captured chimera;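 note: binding of anti-IL-17RA antibodies (4-fold titration across about 5 logs, 1 h) to His-captured IL-17RA chimeras on multiplexed beads, MFI read as percent of maximal wild-type human IL-17RA signal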
T5 construct: human IL-17RA extracellular domain with mouse Domains B and E; also called Construct H
Protocol: as §2, §3
T5 IL-17RA extracellular domain with FLAG-polyHis tag: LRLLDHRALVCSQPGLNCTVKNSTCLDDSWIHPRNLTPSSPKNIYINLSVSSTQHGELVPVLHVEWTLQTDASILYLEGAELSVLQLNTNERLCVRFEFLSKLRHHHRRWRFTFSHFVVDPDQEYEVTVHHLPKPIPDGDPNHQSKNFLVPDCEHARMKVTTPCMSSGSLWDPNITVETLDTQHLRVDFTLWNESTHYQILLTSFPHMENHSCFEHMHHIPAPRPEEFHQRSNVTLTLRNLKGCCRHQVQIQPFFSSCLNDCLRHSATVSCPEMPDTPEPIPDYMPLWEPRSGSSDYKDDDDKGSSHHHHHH

[10] = biological target: T6, chimera A; test: Bio-Plex titration on His-captured chimera
T6 construct: human IL-17RA extracellular domain with mouse Domain A; column head aa 38-51; also called Construct A
Protocol: as §2, §3

[11] = biological target: T7, chimera I; test: Bio-Plex titration on His-captured chimera
T7 construct: human IL-17RA extracellular domain with mouse Domains C and E; also called Construct I
Protocol: as §2, §3

[12] = biological target: T8, chimera B; test: Bio-Plex titration on His-captured chimera
T8 construct: human IL-17RA extracellular domain with mouse Domain B; column head 75-96; also called Construct B
Protocol: as §2, §3
T8 IL-17RA extracellular domain with FLAG-polyHis tag: T5 IL-17RA extracellular domain with FLAG-polyHis tag with D181E, T182A, Q183H, H184Q, D188S

[13] = biological target: T9, chimera G; test: Bio-Plex titration on His-captured chimera
T9 construct: human IL-17RA extracellular domain with mouse Domains A and E; also called Construct G
Protocol: as §2, §3

[14] = biological target: T1, huIL-17RA-FLAG-polyHis; test: binning; IL-17RA held by bead mAb P
[15] = biological target: T1, huIL-17RA-FLAG-polyHis; test: binning; IL-17RA held by bead mAb G
[16] = biological target: T1, huIL-17RA-FLAG-polyHis; test: binning; IL-17RA held by bead mAb C
[17] = biological target: T1, huIL-17RA-FLAG-polyHis; test: binning; IL-17RA held by bead mAb D
Protocol: as §1

[18] = biological target: T1, huIL-17RA-FLAG-polyHis; test: binning; IL-17RA held by bead mAb O
Protocol: as §1

[19] = biological target: T1, huIL-17RA-FLAG-polyHis; test: binning; IL-17RA held by bead mAb L
Protocol: as §1

[20] = biological target: T1, huIL-17RA-FLAG-polyHis; test: binning; IL-17RA held by bead mAb B
[21] = biological target: T1, huIL-17RA-FLAG-polyHis; test: binning; IL-17RA held by bead mAb A
Protocol: as §1

[22] = biological target: T1, huIL-17RA-FLAG-polyHis; test: binning; IL-17RA held by bead mAb F
Protocol: as §1

[23] = biological target: T1, huIL-17RA-FLAG-polyHis; test: binning; IL-17RA held by bead mAb N
Protocol: The method employed the Bio-Plex Workstation and software (BioRad, Hercules, Calif.), as well as reagents from Luminex® Corp. (Austin, Tex.). The manufacturers' basic protocols were followed except where noted below (see www.bio-rad.com and www.luminexcorp.com for details). […] The mouse-anti-human IgG coating was evaluated and the beads quantified by FACS. Each bead code was separately incubated with 10 ul of anti-IL-17RA antibody for 1 hour at room temperature and then washed. The beads were pooled and then dispensed to a 96-well filter plate (Millipore, Billerica, Mass., product #MSBVN1250). […] The PE-tagged monovalent antibody will detect the presence of the second mAb added to the well, but not the first mAb captured by the monovalent mouse-anti-human IgG antibody. Beads were resuspended in 120u1 PBSAT and at least 100 events/bead code were collected on the Bio-Plex workstation as per the manufacturer's recommended protocol.

Binder	normalized MFI [1]	normalized MFI [2]	normalized MFI [3]	normalized MFI [4]	EC50 [7]	EC50 [8]	EC50 [9]	EC50 [10]	EC50 [11]	EC50 [12]	EC50 [13]	normalized MFI [14]	normalized MFI [15]	normalized MFI [16]	normalized MFI [17]	normalized MFI [18]	normalized MFI [19]	normalized MFI [20]	normalized MFI [21]	normalized MFI [22]	also measured
B1	-181	2.5	1170	100	0.026 nM	0.03 nM	0.025 nM	0.018 nM	0.032 nM	0.017 nM	0.025 nM	2160	6280	4770	1380	175	-58	1900	9530	2200	IL-17A/HFF bioassay IC50, subclone 4 [5]: 2.3 nM; IL-17A/HFF bioassay IC50, subclone 5 [5]: 3.1 nM; IL-17A/HFF bioassay IC50, subclone 6 [5]: 3.3 nM; EC50 [6]: 0.025 nM; normalized MFI [23]: 39
B2	-29	58	666	60	0.027 nM	0.04 nM	0.033 nM	0.023 nM	0.042 nM	0.02 nM	0.027 nM	1410	4020	2990	783	140	15	1060	6800	1240	IL-17A/HFF bioassay IC50, subclone 7 [5]: 8.1 nM; IL-17A/HFF bioassay IC50, subclone 8 [5]: 6.6 nM; IL-17A/HFF bioassay IC50, subclone 9 [5]: 6.7 nM; EC50 [6]: 0.027 nM; normalized MFI [23]: 24
B3	8970	6890	260	7850	0.067 nM	0.052 nM	0.088 nM	0.052 nM	0.059 nM	0.063 nM	0.052 nM	4490	480	354	344	5380	3590	1300	-162	304	IL-17A/HFF bioassay IC50, subclone 14 [5]: 0.44 nM; IL-17A/HFF bioassay IC50, subclone 15 [5]: 0.4 nM; IL-17A/HFF bioassay IC50, subclone 16 [5]: 0.17 nM; binding result [6]: no binding; normalized MFI [23]: 3230
